Reference: paper PMC4717663 (2014)

Target: pro-TGF-β1 (Homo sapiens, UniProt P01137)
Sequence (P01137 30-278, chain 1 of 2): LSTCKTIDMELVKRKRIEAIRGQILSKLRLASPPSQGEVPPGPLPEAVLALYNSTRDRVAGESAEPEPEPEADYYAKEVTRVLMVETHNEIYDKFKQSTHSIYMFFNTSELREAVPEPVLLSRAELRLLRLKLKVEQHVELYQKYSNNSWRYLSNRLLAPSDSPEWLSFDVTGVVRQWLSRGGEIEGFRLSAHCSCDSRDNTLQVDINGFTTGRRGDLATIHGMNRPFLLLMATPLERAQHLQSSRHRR
Sequence (P01137 279-390, chain 2 of 2): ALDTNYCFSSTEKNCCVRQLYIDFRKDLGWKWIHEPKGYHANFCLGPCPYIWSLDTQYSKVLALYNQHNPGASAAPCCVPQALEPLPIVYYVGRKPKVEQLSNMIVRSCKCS

Kd: ~10 nM
B1: integrin αVβ6 (protein)
chain 1: FNLDVDSPAEYSGPEGSYFGFAVDFFVPSASSRMFLLVGAPKANTTQPGIVEGGQVLKCDWSSTRRCQPIEFDATGNRDYAKDDPLEFKSHQWFGASVRSKQDKILACAPLYHWRTEMKQEREPVGTCFLQDGTKTVEYAPCRSQDIDADGQGFCQGGFSIDFTKADRVLLGGPGSFYWQGQLISDQVAEIVSKYDPNVYSIKYNNQLATRTAQAIFDDSYLGYSVAVGDFNGDGIDDFVSGVPRAARTLGMVYIYDGKNMSSLYNFTGEQMAAYFGFSVAATDINGDDYADVFIGAPLFMDRGSDGKLQEVGQVSVSLQRASGDFQTTKLNGFEVFARFGSAIAPLGDLDQDGFNDIAIAAPYGGEDKKGIVYIFNGRSTGLNAVPSQILEGQWAARSMPPSFGYSMKGATDIDKNGYPDLIVGAFGVDRAILYRARPVITVNAGLEVYPSILNQDNKTCSLPGTALKVSCFNVRFCLKADGKGVLPRKLNFQVELLLDKLKQKGAIRRALFLYSRSPSHSKNMTISRGGLMQCEELIAYLRDESEFRDKLTPITIFMEYRLDYRTAADTTGLQPILNQFTPANISRQAHILLDCGEDNVCKPKLEVSVDSDQKKIYIGDDNPLTLIVKAQNQGEGAYEAELIVSIPLQADFIGVVRNNEALARLSCAFKTENQTRQVVCDLGNPMKAGTQLLAGLRFSVHQQSEMDTSVKFDLQIQSSNLFDKVSPVVSHKVDLAVLAAVEIRGVSSPDHVFLPIPNWEHKENPETEEDVGPVVQHIYELRNNGPSSFSKAMLHLQWPYKYNNNTLLYILHYDIDGPMNCTSDMEINPLRIKISSLQTTEKNDTVAGQGERDHLITKRDLALSEGDIHTLGCGVAQCLKIVCQVGRLDRGKSAILYVKSLLWTETFMNKENQNHSYSLKSSASFNVIEFPYKNLPIEDITNSTLVTTNVTWGIQPAPMPV
chain 2: GCALGGAETCEDCLLIGPQCAWCAQENFTHPSGVGERCDTPANLLAKGCQLNFIENPVSQVEILKNKPLSVGRQKNSSDIVQIAPQSLILKLRPGGAQTLQVHVRQTEDYPVDLYYLMDLSASMDDDLNTIKELGSRLSKEMSKLTSNFRLGFGSFVEKPVSPFVKTTPEEIANPCSSIPYFCLPTFGFKHILPLTNDAERFNEIVKNQKISANIDTPEGGFDAIMQAAVCKEKIGWRNDSLHLLVFVSDADSHFGMDSKLAGIVIPNDGLCHLDSKNEYSMSTVLEYPTIGQLIDKLVQNNVLLIFAVTQEQVHLYENYAKLIPGATVGLLQKDSGNILQLIISAYEELRSEVELEVLGDTEGLNLSFTAICNNGTLFQHQKKCSHMKVGDTASFSVTVNIPHCERRSRHIIIKPVGLGDALELLVSPECNCDCQKEVEVNSSKCHHGNGSFQCGVCACHPGHMGPRCECGEDMLSTDSCKEAPDHPSCSGRGDCYCGQCICHLSPYGNIYGPYCQCDNFSCVRHKGLLCGGNGDCDCGECVCRSGWTGEYCNCTTSTDSCVSEDGVLCSGRGDCVCGKCVCTNPGASGPTCERCPTCGDPCNSKRSCIECHLSAAGQAREECVDKCKLAGATISEEEDFSKDGSVSCSLQGENECLITFLITTDNEGKTIIHSINEKDCPKPPNIP
